Test results reported in US20220119541A1 (PHARMAEXPLORER, published 2022).
Where two headings read alike, the source gives them in different places. Blank lines part the entries; values can stand above or below the binder they belong to.

Tests used:
[1] = target: T1, monkey GITR (full length, on cells) (monkey); assay: flow cytometry (FACS) on 293F-cGITR cells, MFI curve fit
T1 construct: whole, on cells; also called cGITR
Protocol: (§1) The pIRES plasmid with the monkey-derived GITR full-length gene was transfected into the HEK293 cell line to construct a HEK293 stable cell line containing monkey GITR (herein referred to as HEK293-cGITR stable cell line), wherein the database accession number of the monkey GITR nucleotide sequence is XP_005545180.1. The tool antibody Tab9H6v3 was constructed with reference to the patent (US_2015_0064204_A1). […] The medium was aspirated, and the cells were incubated with chimeric anti-GITR antibody or IgG1 isotype control antibody in PBS+2% FBS for 1 hour so that the antibody binds to the GITR protein expressed on the cell surface. Cells were collected and washed, and then incubated with anti-human antibody conjugated with fluorescent dye at 4° C. for 1 hour. Mean fluorescence intensity (MFI) of chimeric anti-GITR antibodies bound to cells expressing hGITR or cGITR was determined by flow cytometry. The EC50 of the fitting curve was calculated by GraphPad Prism software. The antibody to be tested can bind to human or monkey GITR protein on the cell surface. The data in the table is the average fluorescence intensity values of the cell populations measured by MFI.

[2] = target: T2, human GITR (full length, on cells) (human, UniProt Q9Y5U5 26-241); assay: cell-based or functional assay
T2 sequence (looked up): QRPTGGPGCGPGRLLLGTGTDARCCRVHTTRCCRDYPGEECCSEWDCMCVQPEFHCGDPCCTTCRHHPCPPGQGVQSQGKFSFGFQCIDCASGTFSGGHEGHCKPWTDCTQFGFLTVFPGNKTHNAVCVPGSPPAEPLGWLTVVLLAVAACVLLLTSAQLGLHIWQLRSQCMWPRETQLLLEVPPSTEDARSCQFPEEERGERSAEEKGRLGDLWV

[3] = target: T2, human GITR (full length, on cells); assay: flow cytometry (FACS) on 293F-hGITR cells, MFI curve fit
Protocol: as §1

hGITR-ECD-hFc [4] = target: T3, hGITR-ECD-hFc (human, UniProt Q9Y5U5 26-161); assay: SPR (Biacore), hGITR-ECD-hFc immobilised on CM5 chip, antibody as analyte
T3 construct: ECD put first; also called immunogen A; human GITR extracellular domain protein with hFc tag; not shown: human IgG Fc fragment (hFc) of the pCpC vector
T3 chain: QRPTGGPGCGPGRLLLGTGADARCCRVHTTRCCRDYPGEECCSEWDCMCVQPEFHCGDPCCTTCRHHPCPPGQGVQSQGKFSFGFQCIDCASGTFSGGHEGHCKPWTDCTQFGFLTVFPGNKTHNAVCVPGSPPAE
Protocol: (§2) The antigen hGITR-ECD-hFc was immobilized on the chip surface in manual mode using the running buffer HBS-EP+(10 mM HEPES, 150 mM NaCl, 3 mM EDTA, 0.05% P20, pH 7.4). First, a fresh mixture of 50 mM NHS and 200 mM EDC was used to activate the flow cell 4 of the tandem S CM5 sensor chip. The antigen was then diluted to 1 μg/ml with 10 mM NaAC (pH 5.0) and was injected into flow cell 4 for approximately 40 seconds. Finally, 1 M ethanolamine was used to block the remaining active coupling sites.
Binding kinetics and affinity of the engineered fully human anti-GITR antibody to the antigen hGITR-ECD-hFc protein were tested by Biacore according to step (5) of Example 5, and the results are shown in Table 17.

cGITR-ECD-hFc [5] = target: T4, cGITR-ECD-hFc (rhesus; human, UniProt F7DDV8 14-149); assay: ELISA, cGITR-ECD-hFc coated on plate, HRP anti-human Fab detection
hGITR-ECD-hFc [6] = target: T3, hGITR-ECD-hFc; assay: ELISA, hGITR-ECD-hFc coated on plate, HRP anti-human Fab detection
Protocol: (§3) HGITR-ECD-hFc protein and cGITR-ECD-hFc protein were diluted to 1 μg/ml with PBS hydrochloric acid buffer (pH 7.2), and 100 μl dilution was added to 96-well ELISA microplate, and incubated at 4° C. overnight. The microplate was washed three times with 300 μl/well wash buffer PBST (PBS+0.05% Tween-20), 300 μl blocking buffer (PBST+1% BSA) was added to each well, and incubated at room temperature for 2 hours. The plate was washed three times, 100 μl, 10 μg/ml anti-GITR antibody was added to each well, and was incubated at 37° C. for 1 hour. The plate was washed three times, 100 μl horseradish peroxidase (HRP) labeled anti-human Fab secondary antibody was added to each well, and was incubated at 37° C. for half an hour. The plate was washed three times, 100 μl tetramethylbenzidine (TMB) was added to each well. After 15 minutes of color development, 50 μl 1N HCl termination solution was added to each well, and the OD450 value was read with a plate reader. The EC50 of the binding curve was calculated by GraphPad Prism software.
The binding activity of the engineered fully human anti-GITR antibody to the hGITR-ECD-hFc protein or the cGITR-ECD-hFc protein was detected by an enzyme-linked immunosorbent assay iaccording to the step (1) of Example 5.

[7] = target: T2, human GITR (full length, on cells); assay: cell-based or functional assay; remark: listed apart in the source
[8] = target: T2, human GITR (full length, on cells); assay: cell-based or functional assay; remark: listed apart in the source
[9] = target: T2, human GITR (full length, on cells); assay: flow cytometry (FACS) on 293F-hGITR cells, MFI curve fit; remark: listed apart in the source
Protocol: as §1

[10] = target: T1, monkey GITR (full length, on cells); assay: flow cytometry (FACS) on 293F-cGITR cells, MFI curve fit; remark: listed apart in the source
Protocol: as §1

hGITR-ECD-hFc [11] = target: T3, hGITR-ECD-hFc; assay: SPR (Biacore T200), hGITR-ECD-hFc immobilised on CM5 chip, antibody as analyte
Protocol: as §2
Buffer flow was maintained for 600 seconds to determine dissociation. To remove the test antibody from the surface, 10 mM Glycine-HCl (pH 1.5) was injected into flow cells 1 and 4 at a flow rate of 10 μ L/min for 30 seconds. The above steps were repeated for each concentration of continuously diluted antibodies.
The KD value of each antibody was evaluated using Biacore T200 evaluation software 3.0, where flow cell 1 was used as a reference flow cell.

cGITR-ECD-hFc [12] = target: T4, cGITR-ECD-hFc; assay: ELISA, cGITR-ECD-hFc coated on plate, HRP anti-human Fab detection; remark: listed apart in the source
hGITR-ECD-hFc [13] = target: T3, hGITR-ECD-hFc; assay: ELISA, hGITR-ECD-hFc coated on plate, HRP anti-human Fab detection
Protocol: as §3

T4 sequence (F7DDV8 entry or part of it): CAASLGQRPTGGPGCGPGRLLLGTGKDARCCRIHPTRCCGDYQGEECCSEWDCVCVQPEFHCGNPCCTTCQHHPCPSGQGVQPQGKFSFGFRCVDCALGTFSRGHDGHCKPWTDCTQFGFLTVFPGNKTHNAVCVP

B2: 3503-hab019e2 (antibody, V domains shown)
VH: QVQLVESGGGVVQPGRSLRLSCAASGFTFSSYGMHWVRQAPGKGLEWVAVIWYAGSRKFYADSVEGRFTISRDNSKNTLYLQMNSLRAEDTAVYYCARGGSLEGGFFYYGMDVWGQGTTVTVSS
VL: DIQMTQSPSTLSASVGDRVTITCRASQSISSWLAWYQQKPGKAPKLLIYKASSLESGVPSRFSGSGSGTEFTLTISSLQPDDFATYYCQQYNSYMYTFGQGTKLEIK
notes: also called 96A10H9; engineered fully human anti-GITR antibody
- Kd (hGITR-ECD-hFc [4]): 0.384 nM
- koff (hGITR-ECD-hFc [4]): 0.00023 s⁻¹
- kon (hGITR-ECD-hFc [4]): 600000 M⁻¹ s⁻¹
- EC50 (cGITR-ECD-hFc [5]): 0.096 nM
- EC50 (hGITR-ECD-hFc [6]): 0.089 nM
- Activation of NF-κB activity, EC50 (nM), Coupling [7]: 1.74 nM
- Activation of NF-κB activity, EC50 (nM), Non-coupling [7]: 0.139 nM
- EC50 [1]: 0.31 nM
- EC50 [3]: 0.155 nM

B3: 3503-hab064 (antibody, V domains shown)
VH: QVQLVESGGGVVQPGRSLRLSCAASGFTFSSYGMHWVRQAPGKGLEWVAVIWYETSNKYYADSVKGRFTISRDNSKNTLYLQMNNLRAEDTAVYYCARYGGNSGWYWYFDLWGRGTLVTVSS
VL: DIQLTQSPSFLSASVGDRVTITCRASQGISSFLAWYQQKPGTAPKLLIYAASTLQSGVPSRFSGSGSGTEFTLTISSLQPEDFATYCCQQLNSYPFTFGQGTKLEIK
notes: also called 265G9A11; fully human anti-GITR antibody
- Activation of NF-κB activity, EC50 (nM), Coupling [8]: 2.8 nM
- Activation of NF-κB activity, EC50 (nM), Non-coupling [8]: 0.177 nM
- EC50 [9]: 0.194 nM
- EC50 [10]: 0.254 nM
- Kd (hGITR-ECD-hFc [11]): 0.592 nM
- koff (hGITR-ECD-hFc [11]): 0.000315 s⁻¹
- kon (hGITR-ECD-hFc [11]): 532000 M⁻¹ s⁻¹
- EC50 (cGITR-ECD-hFc [12]): 0.0369 nM
- EC50 (hGITR-ECD-hFc [13]): 0.0443 nM

Continued, values first:

- EC50 [1]: 0.01 nM
- Activation of NF-κB activity, EC50 (nM), Coupling (Crosslinking) [2]: 12.5 nM
- EC50 [3]: 0.07 nM
B1: 3503-mAb019 (antibody, V domains shown)
VH: QVQLVESGGGVVQPGRSLRLSCAASGFTFSSYGMHWVRQAPGKGLEWVAVIWYAGSRKFYADSVEGRFTISRDNSKNTLYLQMSSVRPEDTAVYYCARGGSLDGGFFYYGMDVWGQGTTVTVSS
VL: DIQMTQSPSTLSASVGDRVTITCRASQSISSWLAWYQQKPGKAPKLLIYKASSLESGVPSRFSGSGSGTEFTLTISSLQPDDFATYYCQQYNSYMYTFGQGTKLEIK
notes: Chimeric antibody purified from hybridoma supernatant of Harbour H2L2 mice: human variable regions with rat constant regions; also called 96A10H9; chimeric anti-GITR antibody

- Kd (hGITR-ECD-hFc [4]): 0.537 nM
- koff (hGITR-ECD-hFc [4]): 0.000381 s⁻¹
- kon (hGITR-ECD-hFc [4]): 710000 M⁻¹ s⁻¹
- EC50 (cGITR-ECD-hFc [5]): 0.062 nM
- EC50 (hGITR-ECD-hFc [6]): 0.074 nM
- Activation of NF-κB activity, EC50 (nM), Coupling [7]: 4.08 nM
- Activation of NF-κB activity, EC50 (nM), Non-coupling [7]: 0.0957 nM
- EC50 [1]: 0.264 nM
- EC50 [3]: 0.169 nM
B4: 3503-hab070e1 (antibody, V domains shown)
VH: QVQLVESGGGVVQPGRSLRLSCAASGFTFSSYGMHWVRQAPGKGLEWVAVIWYETSNKFYVDSVKGRFTISRDNSKNTLYLQMNSLRAEDTAVYYCARYGASSGWYWYFDLWGRGTLVTVSS
VL: DIQLTQSPSFLSASVGDRVTITCRASQGISSFLAWYQQKPGKAPKLLIYAASTLQSGVPSRFSGSGSGTEFTLTISSLQPEDFATYYCQQLNSYPFTFGQGTKLEIK
notes: also called 272G5E1; engineered fully human anti-GITR antibody
